# Experimental data reported in the supplement of paper PMC7125110.
# ± gives the standard error. For some of these results: This sample holds only a part of the variants without activity.
# B1: glmS ribozyme (parent)
# chain: AUAAAAGCGCCAGAACUACAGAAAUGUAGUUGACGAGGAGGAGGUUUAUCGAAUUUUCGGCGGAUGCCUCCAAA
# Tests used:
# Conditions in all cases: with glucosamine-6-phosphate
# glucosamine-6-phosphate [1] = variants of: B1; experiment: kcat; higher = faster cleavage; RNA array
# Method in brief: (§1)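 Over ~14 h at 37 °C, tiles were imaged as glucosamine-6-phosphate (40 μM to 10 mM) in HEPES/KCl/Mg(OAc)2 buffer flowed across sequenced MiSeq chips. The chips carried barcoded ribozyme variants transcribed in situ by E. coli RNA polymerase and tracked with a hybridised Cy3 probe. After normalisation to baseline and to non-cleaving reference variants, one- or two-exponential decay fits of per-tile medians gave kobs. kcat and KM followed from weighted Michaelis–Menten fits across concentrations.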
# glucosamine-6-phosphate [2] = variants of: B1; experiment: KM; higher = weaker cofactor use; RNA array
# Method in brief: as §1
# glucosamine-6-phosphate [3] = variants of: B1; experiment: self-cleavage kobs at 640 uM GlcN6P; higher = faster cleavage; RNA array
# Method in brief: as §1
# glucosamine-6-phosphate [4] = variants of: B1; experiment: self-cleavage kobs at 2500 uM GlcN6P; higher = faster cleavage; RNA array
# Method in brief: as §1
# glucosamine-6-phosphate [5] = variants of: B1; experiment: self-cleavage kobs at 10000 uM GlcN6P; higher = faster cleavage; RNA array
# Method in brief: as §1
# glucosamine-6-phosphate [6] = variants of: B1; experiment: self-cleavage kobs at 160 uM GlcN6P; higher = faster cleavage; RNA array
# Method in brief: as §1
# glucosamine-6-phosphate [7] = variants of: B1; experiment: self-cleavage kobs at 40 uM GlcN6P; higher = faster cleavage; RNA array
# Method in brief: as §1
Variant,kcat (glucosamine-6-phosphate [1]) [s⁻¹],KM (glucosamine-6-phosphate [2]) [µM],self-cleavage kobs at 640 uM GlcN6P (glucosamine-6-phosphate [3]) [s⁻¹],self-cleavage kobs at 2500 uM GlcN6P (glucosamine-6-phosphate [4]) [s⁻¹],self-cleavage kobs at 10000 uM GlcN6P (glucosamine-6-phosphate [5]) [s⁻¹],self-cleavage kobs at 160 uM GlcN6P (glucosamine-6-phosphate [6]) [s⁻¹],self-cleavage kobs at 40 uM GlcN6P (glucosamine-6-phosphate [7]) [s⁻¹]
A52U C67G,0.000281 ± 3.9e-05,2620 ± 740,6.34e-05 ± 7.8e-06,0.000118 ± 1.4e-05,0.000235 ± 2e-05,,
A48G U56A,6.12e-05 ± 9.5e-06,,,4.68e-05 ± 7.6e-06,5.17e-05 ± 8.2e-06,,
G51U U54A,< 1e-05,,,,,,
U49A U65G,< 1e-05,,,,< 1e-05,< 1e-05,
C50G U56G,4.44e-05 ± 8.9e-06,,,5.17e-05 ± 2.1e-05,,4.35e-05 ± 1.5e-05,
U47G U57A,0.000141 ± 1.3e-05,1670 ± 420,4.42e-05 ± 1.5e-05,7.57e-05 ± 2.1e-05,0.000125 ± 2.4e-05,,
U47G U57C,0.000206 ± 2.4e-05,6430 ± 1500,,5.65e-05 ± 1.2e-05,0.000126 ± 1.3e-05,,
U47C U69A,0.000275 ± 6.6e-05,,5.97e-05 ± 2.2e-05,0.000178 ± 5.8e-05,0.00023 ± 3.1e-05,,2.9e-05 ± 1.4e-05
A52U G66A,0.000745 ± 0.00034,,,5.37e-05 ± 1.4e-05,0.000185 ± 2.9e-05,,
A52U G66U,4.61e-05 ± 3.4e-06,,,3.74e-05 ± 1.8e-05,4.26e-05 ± 1.2e-05,,< 1e-05
C50G G62U U69G,8.66e-05 ± 2.1e-05,,7.83e-05 ± 2.3e-05,0.000155 ± 4.7e-05,7.41e-05 ± 1.6e-05,0.000155 ± 4.5e-05,3.4e-05 ± 1.2e-05
G51A C70G,3.48e-05 ± 7.3e-06,,,,,,
G51A C70A,2.99e-05 ± 7.1e-06,,,3.24e-05 ± 1.5e-05,,,
A52G U54C,0.00197 ± 7e-05,2700 ± 150,0.000379 ± 5.7e-05,0.000985 ± 0.00015,0.00153 ± 0.00019,0.000111 ± 1.8e-05,2.55e-05 ± 1.1e-05
A48U C58G,1.01e-05 ± 4e-06,,,,,,
A53C U56A,0.00313 ± 0.00063,2700 ± 730,0.000467 ± 9.1e-05,0.00171 ± 0.00027,0.00243 ± 0.00038,0.000205 ± 3.7e-05,4.81e-05 ± 7e-06
U49G U54A,0.00122 ± 0.00034,3170 ± 1400,0.000176 ± 3.6e-05,,0.000941 ± 0.00014,9.47e-05 ± 2.3e-05,
A53C G59C,< 1e-05,,< 1e-05,,< 1e-05,,< 1e-05

Variant,kcat (glucosamine-6-phosphate [1]) [s⁻¹],KM (glucosamine-6-phosphate [2]) [µM],self-cleavage kobs at 640 uM GlcN6P (glucosamine-6-phosphate [3]) [s⁻¹],self-cleavage kobs at 2500 uM GlcN6P (glucosamine-6-phosphate [4]) [s⁻¹],self-cleavage kobs at 10000 uM GlcN6P (glucosamine-6-phosphate [5]) [s⁻¹],self-cleavage kobs at 160 uM GlcN6P (glucosamine-6-phosphate [6]) [s⁻¹],self-cleavage kobs at 40 uM GlcN6P (glucosamine-6-phosphate [7]) [s⁻¹]
A53C U65G,0.00136 ± 0.0002,3420 ± 810,0.000197 ± 2.5e-05,0.000555 ± 6.7e-05,0.00104 ± 0.0001,8.25e-05 ± 1.4e-05,
U47C C58G,6.37e-05 ± 7.3e-07,2170 ± 92,,3.41e-05 ± 1.1e-05,5.23e-05 ± 7.5e-06,,
U47G U56G,0.00559 ± 0.00071,1560 ± 280,0.00151 ± 0.00034,0.00299 ± 0.00058,0.00556 ± 0.00097,0.000523 ± 0.00015,0.000148 ± 2.2e-05
U47C C71G,0.000277 ± 6.2e-05,,0.000116 ± 1.9e-05,0.000253 ± 3.8e-05,0.000197 ± 5.1e-05,,
U47C C71A,0.00134 ± 0.00043,,0.000204 ± 4.2e-05,0.000441 ± 0.00011,0.00101 ± 0.00017,4.4e-05 ± 1.9e-05,4.8e-05 ± 2e-05
A48U C68U,7.9e-05 ± 4.9e-06,435 ± 140,4.57e-05 ± 6.9e-06,7.48e-05 ± 7.7e-06,7.25e-05 ± 6.1e-06,,
G51C U69A,< 1e-05,,,,,,< 1e-05
A52U U56A,7.93e-05 ± 2e-05,,,7.17e-05 ± 1.7e-05,6.73e-05 ± 9.7e-06,,< 1e-05
A52U U56C,2.72e-05 ± 1.5e-06,1210 ± 330,,,,,
U49G U56G,0.000717 ± 1.9e-05,4760 ± 210,8.38e-05 ± 1.5e-05,0.000254 ± 4.7e-05,0.000484 ± 5.8e-05,,
U47G C58G,0.000117 ± 5.4e-05,,5.51e-05 ± 2.1e-05,3.21e-05 ± 1.3e-05,8.31e-05 ± 1.2e-05,,
U47G C58A,0.000264 ± 4e-05,2260 ± 690,5.5e-05 ± 1.2e-05,0.000177 ± 4.2e-05,0.000208 ± 3.2e-05,,
C50A C58U,1.33e-05 ± 5.8e-06,,< 1e-05,,,,
A52U A64G C68U,6.78e-05 ± 4.7e-06,741 ± 230,,5.62e-05 ± 2.2e-05,6.09e-05 ± 2.2e-05,,
U49C C61U,1.01e-05 ± 1.5e-06,,,,< 1e-05,,
C50A U56G,< 1e-05,,,,,,
A48U C67A,0.000213 ± 8.2e-05,,0.00012 ± 1.5e-05,0.000105 ± 2.4e-05,0.000298 ± 4.3e-05,,
U47C C68A,3.98e-05 ± 6.2e-06,,,4.92e-05 ± 1.8e-05,3.44e-05 ± 1.2e-05,,
